The results in this text go back to patent publication US7220569.

For data set [1], the system named is recombinant Factor X (rFX) from highly expressing CHO-rFX clones.
The test system of data set [2] is rFactor X from furin deficient CHO-FD11 cells (CHO-FD11-rFX).
For data set [3], the system named is Factor X analogue with the FXIa cleavage site Asp-Phe-Thr-Arg/Val (rFX^DFTR/V).
Factor X analogue with the FXIa cleavage site Asp-Phe-Thr-Arg/Val (rFX^DFTR/V), sequence (chain, as listed by the source, chain 1 of 2): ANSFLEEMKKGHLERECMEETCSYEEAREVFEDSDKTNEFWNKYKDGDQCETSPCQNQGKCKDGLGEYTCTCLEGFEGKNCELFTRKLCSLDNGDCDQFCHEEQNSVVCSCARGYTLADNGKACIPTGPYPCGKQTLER
Factor X analogue with the FXIa cleavage site Asp-Phe-Thr-Arg/Val (rFX^DFTR/V), sequence (chain, as listed by the source, chain 2 of 2): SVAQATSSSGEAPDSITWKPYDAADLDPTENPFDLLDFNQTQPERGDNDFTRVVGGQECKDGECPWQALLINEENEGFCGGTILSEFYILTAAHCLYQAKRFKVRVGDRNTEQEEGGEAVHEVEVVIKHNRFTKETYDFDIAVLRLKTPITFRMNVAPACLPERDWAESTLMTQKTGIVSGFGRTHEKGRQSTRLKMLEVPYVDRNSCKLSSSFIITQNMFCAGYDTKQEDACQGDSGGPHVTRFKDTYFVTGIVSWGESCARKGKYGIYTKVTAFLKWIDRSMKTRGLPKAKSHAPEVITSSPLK

recombinant Factor X (rFX) from highly expressing CHO-rFX clones, sequence (chain, as listed by the source): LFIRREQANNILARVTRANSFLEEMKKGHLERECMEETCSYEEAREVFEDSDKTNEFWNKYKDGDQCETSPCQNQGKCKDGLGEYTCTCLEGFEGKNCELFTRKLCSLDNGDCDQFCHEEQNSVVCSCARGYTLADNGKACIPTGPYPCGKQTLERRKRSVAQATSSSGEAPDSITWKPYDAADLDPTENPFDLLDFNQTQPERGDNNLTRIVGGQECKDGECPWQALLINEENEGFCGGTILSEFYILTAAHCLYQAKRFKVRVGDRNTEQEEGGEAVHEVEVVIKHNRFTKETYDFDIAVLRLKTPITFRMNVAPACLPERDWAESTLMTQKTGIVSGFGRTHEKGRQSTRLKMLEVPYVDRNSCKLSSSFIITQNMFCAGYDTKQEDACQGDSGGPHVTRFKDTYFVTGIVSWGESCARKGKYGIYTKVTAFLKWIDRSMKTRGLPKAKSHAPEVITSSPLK
rFactor X from furin deficient CHO-FD11 cells (CHO-FD11-rFX), sequence (chain, as listed by the source): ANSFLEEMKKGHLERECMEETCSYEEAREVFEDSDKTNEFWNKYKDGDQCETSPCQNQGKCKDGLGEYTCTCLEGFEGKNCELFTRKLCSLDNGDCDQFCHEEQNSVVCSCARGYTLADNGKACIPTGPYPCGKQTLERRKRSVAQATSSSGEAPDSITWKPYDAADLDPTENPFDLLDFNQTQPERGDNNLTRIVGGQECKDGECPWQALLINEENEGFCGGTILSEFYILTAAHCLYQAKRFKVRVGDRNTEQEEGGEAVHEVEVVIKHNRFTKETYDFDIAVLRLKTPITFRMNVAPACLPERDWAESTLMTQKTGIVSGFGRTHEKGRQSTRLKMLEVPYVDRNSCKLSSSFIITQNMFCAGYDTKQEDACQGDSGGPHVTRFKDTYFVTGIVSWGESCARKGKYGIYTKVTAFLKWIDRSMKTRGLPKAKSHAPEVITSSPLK

As to “rfurin deltaTM6xHis (CHO-rfurin cell culture supernatant)”, in data set [1], the “N-termini of processing products after 12 hours at 37 C with CHO-rfurin supernatant (Edman analysis)” value was “After incubation of rFX from CHO cells (c) and CHO-FD11 cells (e) in the presence of furin, only light and heavy chains having correct N-termini are found”; the activity (mU), FX Coatest after RVV activation, incubation 0 days was found to be 853 mU; the activity (mU), FX Coatest after RVV activation, incubation 1 day amounted to 1020 mU; the activity (mU), FX Coatest after RVV activation, incubation 2 days came to 1100 mU. Further, in data set [1], the activity (mU), FX Coatest after RVV activation, incubation 3 days came out at 1140 mU; the activity (mU), FX Coatest after RVV activation, incubation 4 days is 1200 mU; the functional portion of rFX (%), incubation 0 days was found to be 61%; the functional portion of rFX (%), incubation 1 day was 73%. Also, in data set [1], the functional portion of rFX (%), incubation 2 days was 79%; the functional portion of rFX (%), incubation 3 days was 81%; the functional portion of rFX (%), incubation 4 days was determined as 86%; the “processing of pro-Factor X on tentacle gel immobilized rfurin derivative (Western blot of the effluent)” value is “Processing of pro-Factor X to double chain Factor X was detected in the effluent of the column”. Moreover, the “processing of single chain and propeptide containing rFX (Western blot)” value in data set [1] was “almost complete processing already after 2 hours of incubation at 37 °C”. The “N-termini of processing products after 12 hours at 37 C with CHO-rfurin supernatant (Edman analysis)” value in data set [2] was “After incubation of rFX from CHO cells (c) and CHO-FD11 cells (e) in the presence of furin, only light and heavy chains having correct N-termini are found”.
With endogenous furin of CHO cells, in data set [1], the “processing of rFactor X precursor in furin containing versus furin deficient CHO clones (Western blot)” value was “rFactor X precursor is not processed in the furin deficient cells and only single chain Factor X precursor is present (FIG. 6); in contrast, rFactor X is completely processed by "normal" cells at modest expression”.
purified plasma FXIa: the “activation of rFX^DFTR/V to the 35 kD and 31 kD forms (Western blot)” value in data set [3] is “protein bands of 35 kD and 31 kD rapidly appear after the addition of purified FXIa, but prior to the actual incubation of the cell sulture supernatant (FIG. 11, lane 3)”.
